Biological target: T1, Rrp41 D182A (catalytically inactive);Rrp42 (Sulfolobus solfataricus;Sulfolobus …, UniProt Q9UXC2;Q9UXC0 ;, D182A|)
T1 sequence 1: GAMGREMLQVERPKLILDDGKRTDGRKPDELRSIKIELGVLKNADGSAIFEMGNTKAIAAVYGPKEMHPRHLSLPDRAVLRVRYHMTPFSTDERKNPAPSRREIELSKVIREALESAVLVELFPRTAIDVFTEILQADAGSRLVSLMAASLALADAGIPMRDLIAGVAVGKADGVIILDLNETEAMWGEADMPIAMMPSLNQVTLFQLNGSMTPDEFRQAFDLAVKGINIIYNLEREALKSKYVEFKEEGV
T1 sequence 2: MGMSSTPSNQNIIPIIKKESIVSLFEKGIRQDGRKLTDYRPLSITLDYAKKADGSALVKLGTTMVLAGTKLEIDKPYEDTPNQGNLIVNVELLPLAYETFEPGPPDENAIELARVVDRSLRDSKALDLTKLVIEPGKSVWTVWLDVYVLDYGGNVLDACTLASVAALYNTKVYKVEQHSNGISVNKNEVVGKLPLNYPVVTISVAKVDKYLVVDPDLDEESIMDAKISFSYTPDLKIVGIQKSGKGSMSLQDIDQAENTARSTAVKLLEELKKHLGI
Assay: fluorescence anisotropy

B1: fluorescent 32A (FA RNA) (structured_RNA)
RNA: GCCCCCCCCGAAAGGGGGGGGAAAAAAAAAAAAAAAAAAAAAUAAAAAAAAAAAGCU
modifications: 4-thiouridine at position 43
Binder B1 has a Kd of 11.7 ± 0.9 nM.
